Data on 20 molecules can be found in US20250163127A1.

The target of test [1] is CD28 (human) (UniProt P10747). The test can be described thus: flow cytometry, transfected cells. A general note: In flow cytometry, cells or beads pass a laser one at a time.
Test [2] concerns the target CD28 (human) (UniProt P10747). The test can be described thus: flow cytometry, Jurkat cells (CD28).
For test [3], the target named is CTLA4 (human). The test can be described thus: flow cytometry, CHO cells stably expressing CTLA4.
For test [4], the target named is PD-L1 (human). The test can be described thus: flow cytometry, CHO cells stably expressing PD-L1.
PD-L1 (human), sequence (chain, as listed by the source): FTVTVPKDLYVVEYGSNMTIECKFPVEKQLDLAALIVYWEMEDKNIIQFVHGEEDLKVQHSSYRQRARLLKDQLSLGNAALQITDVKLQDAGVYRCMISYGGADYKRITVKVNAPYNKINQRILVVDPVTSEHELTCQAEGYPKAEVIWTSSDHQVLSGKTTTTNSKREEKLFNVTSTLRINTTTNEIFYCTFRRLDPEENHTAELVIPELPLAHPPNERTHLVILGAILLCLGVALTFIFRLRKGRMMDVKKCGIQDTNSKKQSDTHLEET

CTLA4 (human), sequence (chain, as listed by the source): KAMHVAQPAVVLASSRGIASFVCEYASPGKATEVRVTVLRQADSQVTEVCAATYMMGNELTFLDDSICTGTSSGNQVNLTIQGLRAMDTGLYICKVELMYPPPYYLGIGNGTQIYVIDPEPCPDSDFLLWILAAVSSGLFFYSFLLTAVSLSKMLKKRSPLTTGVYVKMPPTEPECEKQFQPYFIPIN

B1: ICOSL ECD-Fc N84Q (Fc fusion)
chain: DTQEKEVRAMVGSDVELSCACPEGSRFDLNDVYVYWQTSESKTVVTYHIPQNSSLENVDSRYRNRALMSPAGMLRGDFSLRLFQVTPQDEQKFHCLVLSQSLGFQEVLSVEVTLHVAANFSVPVVSAPHSPSQDELTFTCTSINGYPRPNVYWINKTDNSLLDQALQNDTVFLNMRGLYDVVSVLRIARTPSVNIGCCIENVLLQQNLTVGSQTGNDIGERDKITENPVSTGEKNAAT
In the case of B1, in test [1], the MFI is 1760 MFI.

B2: ICOSL ECD-Fc N52Q/N119Q/N155Q (Fc fusion)
chain: DTQEKEVRAMVGSDVELSCACPEGSRFDLNDVYVYWQTSESKTVVTYHIPQQSSLENVDSRYRNRALMSPAGMLRGDFSLRLFNVTPQDEQKFHCLVLSQSLGFQEVLSVEVTLHVAAQFSVPVVSAPHSPSQDELTFTCTSINGYPRPNVYWIQKTDNSLLDQALQNDTVFLNMRGLYDVVSVLRIARTPSVNIGCCIENVLLQQNLTVGSQTGNDIGERDKITENPVSTGEKNAAT
B2 had an MFI in test [1] of 552 MFI.

B3: ICOSL ECD-Fc N155Q/N207Q (Fc fusion)
chain: DTQEKEVRAMVGSDVELSCACPEGSRFDLNDVYVYWQTSESKTVVTYHIPQNSSLENVDSRYRNRALMSPAGMLRGDFSLRLFNVTPQDEQKFHCLVLSQSLGFQEVLSVEVTLHVAANFSVPVVSAPHSPSQDELTFTCTSINGYPRPNVYWIQKTDNSLLDQALQNDTVFLNMRGLYDVVSVLRIARTPSVNIGCCIENVLLQQQLTVGSQTGNDIGERDKITENPVSTGEKNAAT
Turning to B3, the MFI in test [1] came out at 1490 MFI.

B4: ICOSL ECD-Fc N119Q/N168Q/N207Q (Fc fusion)
chain: DTQEKEVRAMVGSDVELSCACPEGSRFDLNDVYVYWQTSESKTVVTYHIPQNSSLENVDSRYRNRALMSPAGMLRGDFSLRLFNVTPQDEQKFHCLVLSQSLGFQEVLSVEVTLHVAAQFSVPVVSAPHSPSQDELTFTCTSINGYPRPNVYWINKTDNSLLDQALQQDTVFLNMRGLYDVVSVLRIARTPSVNIGCCIENVLLQQQLTVGSQTGNDIGERDKITENPVSTGEKNAAT
For B4, the MFI in test [1] is 921 MFI.

B5: ICOSL ECD-Fc N119Q/N207Q (Fc fusion)
chain: DTQEKEVRAMVGSDVELSCACPEGSRFDLNDVYVYWQTSESKTVVTYHIPQNSSLENVDSRYRNRALMSPAGMLRGDFSLRLFNVTPQDEQKFHCLVLSQSLGFQEVLSVEVTLHVAAQFSVPVVSAPHSPSQDELTFTCTSINGYPRPNVYWINKTDNSLLDQALQNDTVFLNMRGLYDVVSVLRIARTPSVNIGCCIENVLLQQQLTVGSQTGNDIGERDKITENPVSTGEKNAAT
Regarding B5, in test [1], the MFI was 1860 MFI.

B6: ICOSL ECD-Fc N168Q (Fc fusion)
chain: DTQEKEVRAMVGSDVELSCACPEGSRFDLNDVYVYWQTSESKTVVTYHIPQNSSLENVDSRYRNRALMSPAGMLRGDFSLRLFNVTPQDEQKFHCLVLSQSLGFQEVLSVEVTLHVAANFSVPVVSAPHSPSQDELTFTCTSINGYPRPNVYWINKTDNSLLDQALQQDTVFLNMRGLYDVVSVLRIARTPSVNIGCCIENVLLQQNLTVGSQTGNDIGERDKITENPVSTGEKNAAT
Consider B6, for which, in test [1], the MFI worked out at 1410 MFI.

B7: ICOSL ECD-Fc N84Q/N168Q/N207Q (Fc fusion)
chain: DTQEKEVRAMVGSDVELSCACPEGSRFDLNDVYVYWQTSESKTVVTYHIPQNSSLENVDSRYRNRALMSPAGMLRGDFSLRLFQVTPQDEQKFHCLVLSQSLGFQEVLSVEVTLHVAANFSVPVVSAPHSPSQDELTFTCTSINGYPRPNVYWINKTDNSLLDQALQQDTVFLNMRGLYDVVSVLRIARTPSVNIGCCIENVLLQQQLTVGSQTGNDIGERDKITENPVSTGEKNAAT
As to B7, the MFI in test [1] was 737 MFI.

B8: ICOSL ECD-Fc N119Q/N168Q (Fc fusion)
chain: DTQEKEVRAMVGSDVELSCACPEGSRFDLNDVYVYWQTSESKTVVTYHIPQNSSLENVDSRYRNRALMSPAGMLRGDFSLRLFNVTPQDEQKFHCLVLSQSLGFQEVLSVEVTLHVAAQFSVPVVSAPHSPSQDELTFTCTSINGYPRPNVYWINKTDNSLLDQALQQDTVFLNMRGLYDVVSVLRIARTPSVNIGCCIENVLLQQNLTVGSQTGNDIGERDKITENPVSTGEKNAAT
B8 registered an MFI in test [1] of 2530 MFI.

B9: ICOSL ECD-Fc N52Q/N84Q (Fc fusion)
chain: DTQEKEVRAMVGSDVELSCACPEGSRFDLNDVYVYWQTSESKTVVTYHIPQQSSLENVDSRYRNRALMSPAGMLRGDFSLRLFQVTPQDEQKFHCLVLSQSLGFQEVLSVEVTLHVAANFSVPVVSAPHSPSQDELTFTCTSINGYPRPNVYWINKTDNSLLDQALQNDTVFLNMRGLYDVVSVLRIARTPSVNIGCCIENVLLQQNLTVGSQTGNDIGERDKITENPVSTGEKNAAT
Molecule B9 yielded an MFI in test [1] of 1680 MFI.

B10: ICOSL ECD-Fc N84Q/N119Q (Fc fusion)
chain: DTQEKEVRAMVGSDVELSCACPEGSRFDLNDVYVYWQTSESKTVVTYHIPQNSSLENVDSRYRNRALMSPAGMLRGDFSLRLFQVTPQDEQKFHCLVLSQSLGFQEVLSVEVTLHVAAQFSVPVVSAPHSPSQDELTFTCTSINGYPRPNVYWINKTDNSLLDQALQNDTVFLNMRGLYDVVSVLRIARTPSVNIGCCIENVLLQQNLTVGSQTGNDIGERDKITENPVSTGEKNAAT
Turning to B10, the MFI in test [1] came to 1490 MFI.

B11: ICOSL ECD-Fc N52Q/N84Q/N119Q/N207Q (Fc fusion)
chain: DTQEKEVRAMVGSDVELSCACPEGSRFDLNDVYVYWQTSESKTVVTYHIPQQSSLENVDSRYRNRALMSPAGMLRGDFSLRLFQVTPQDEQKFHCLVLSQSLGFQEVLSVEVTLHVAAQFSVPVVSAPHSPSQDELTFTCTSINGYPRPNVYWINKTDNSLLDQALQNDTVFLNMRGLYDVVSVLRIARTPSVNIGCCIENVLLQQQLTVGSQTGNDIGERDKITENPVSTGEKNAAT
The molecule B11 had an MFI in test [1] of 602 MFI.

B12: CD80 variant A26E/Q33R/E35D/M47L/L85Q/K86E IgV-Fc (Fc fusion)
chain: VIHVTKEVKEVATLSCGHNVSVEELEQTRIYWRKDKKMVLTMMSGDLNIWPEYKNRTIFDITNNLSIVILALRPSDEGTYECVVQEYEKDAFKREHLAEVT
In the case of B12, in test [2], the Fold change to WT came out at 0.04 fold and the MFI at 33.3 nM stood at 275 MFI. Besides, in test [3], the Fold change to WT CD80 worked out at 0.01 fold and the MFI at 33.3 nM is 1280 MFI. In test [4], this molecule yielded a Fold change to WT of 9.56 fold and an MFI at 33.3 nM of 76000 MFI.

B13: CD80 variant Q33K/E35D/M47V/K89E/K93R IgV-Fc (Fc fusion)
chain: VIHVTKEVKEVATLSCGHNVSVEELAQTRIYWKKDKKMVLTMMSGDVNIWPEYKNRTIFDITNNLSIVILALRPSDEGTYECVVLKYEEDAFRREHLAEVT
Regarding B13, the MFI at 33.3 nM in test [2] stood at 276 MFI; in test [4], 39100 MFI.

B14: CD80 variant E35D/M47L/L85Q IgV-Fc (Fc fusion)
chain: VIHVTKEVKEVATLSCGHNVSVEELAQTRIYWQKDKKMVLTMMSGDLNIWPEYKNRTIFDITNNLSIVILALRPSDEGTYECVVQKYEKDAFKREHLAEVT
Turning to B14, the Fold change to WT in test [2] came out at 0.08 fold; in test [4], 4.18 fold. In addition, the results for the MFI at 33.3 nM in test [2], in test [3] and in test [4] were 646 MFI, 336000 MFI and 33200 MFI, respectively. This molecule also had a Fold change to WT CD80 in test [3] of 1.88 fold.

B15: CD80 variant A26E/Q33L/E35D/M47L IgV-Fc (Fc fusion)
chain: VIHVTKEVKEVATLSCGHNVSVEELEQTRIYWLKDKKMVLTMMSGDLNIWPEYKNRTIFDITNNLSIVILALRPSDEGTYECVVLKYEKDAFKREHLAEVT
For B15, in test [2], the Fold change to WT amounted to 0.04 fold and the MFI at 33.3 nM is 271 MFI. In test [3], this molecule registered a Fold change to WT CD80 of 0.01 fold and an MFI at 33.3 nM of 1320 MFI. In test [4], the Fold change to WT worked out at 7.67 fold and the MFI at 33.3 nM was 60900 MFI.

B16: CD80 variant H18Y/Q33L/E35D/M47I IgV-Fc (Fc fusion)
chain: VIHVTKEVKEVATLSCGYNVSVEELAQTRIYWLKDKKMVLTMMSGDINIWPEYKNRTIFDITNNLSIVILALRPSDEGTYECVVLKYEKDAFKREHLAEVT
In test [2], B16 had a Fold change to WT of 0.04 fold and an MFI at 33.3 nM of 295 MFI. In test [3], the Fold change to WT CD80 was 0.03 fold and the MFI at 33.3 nM was 5540 MFI. Further, in test [4], the Fold change to WT stood at 6.02 fold and the MFI at 33.3 nM was found to be 47800 MFI.

B17: CD80 variant A26E/Q33L/E35D/M47L/L85Q IgV-Fc (Fc fusion)
chain: VIHVTKEVKEVATLSCGHNVSVEELEQTRIYWLKDKKMVLTMMSGDLNIWPEYKNRTIFDITNNLSIVILALRPSDEGTYECVVQKYEKDAFKREHLAEVT
In test [2], B17 yielded a Fold change to WT of 0.04 fold and an MFI at 33.3 nM of 274 MFI. In test [3], this molecule showed a Fold change to WT CD80 of 0.01 fold and an MFI at 33.3 nM of 1170 MFI. In test [4], this molecule came in with a Fold change to WT of 7.89 fold and an MFI at 33.3 nM of 62700 MFI.

B18: CD80 variant Q33L/E35D/M47I IgV-Fc (Fc fusion)
chain: VIHVTKEVKEVATLSCGHNVSVEELAQTRIYWLKDKKMVLTMMSGDINIWPEYKNRTIFDITNNLSIVILALRPSDEGTYECVVLKYEKDAFKREHLAEVT
As to B18, in test [2], the Fold change to WT was 0.04 fold and the MFI at 33.3 nM worked out at 282 MFI. Further, in test [3], the Fold change to WT CD80 came out at 0.09 fold and the MFI at 33.3 nM came to 15900 MFI. In test [4], this molecule yielded a Fold change to WT of 4.7 fold and an MFI at 33.3 nM of 37400 MFI.

B19: CD80 variant H18Y/A26E/Q33L/E35D/M47L/L85Q IgV-Fc (Fc fusion)
chain: VIHVTKEVKEVATLSCGYNVSVEELEQTRIYWLKDKKMVLTMMSGDLNIWPEYKNRTIFDITNNLSIVILALRPSDEGTYECVVQKYEKDAFKREHLAEVT
In test [2], B19 came in with a Fold change to WT of 0.04 fold and an MFI at 33.3 nM of 272 MFI. In test [3], this molecule registered a Fold change to WT CD80 of 0.01 fold and an MFI at 33.3 nM of 2090 MFI. In test [4], this molecule had a Fold change to WT of 9.64 fold and an MFI at 33.3 nM of 76600 MFI.

B20: CD80 variant A26E/Q33R/E35D/M47L/L85Q IgV-Fc (Fc fusion)
chain: VIHVTKEVKEVATLSCGHNVSVEELEQTRIYWRKDKKMVLTMMSGDLNIWPEYKNRTIFDITNNLSIVILALRPSDEGTYECVVQKYEKDAFKREHLAEVT
In test [2], B20 gave a Fold change to WT of 0.03 fold and an MFI at 33.3 nM of 264 MFI. In test [3], this molecule showed a Fold change to WT CD80 of 0.01 fold and an MFI at 33.3 nM of 1280 MFI. For the same molecule, in test [4], the Fold change to WT is 10.3 fold and the MFI at 33.3 nM amounted to 81500 MFI.
